Measured values from PMC10017041 (Science Advances, 2023).

Columns and labels:
Assay in all cases: cryo-EM structure
[1] = molecular target: CCT7 subunit of yeast TRiC (S. cerevisiae, UniProt P42943 1-550)
[2] = molecular target: CCT2 subunit of yeast TRiC (S. cerevisiae, UniProt P39076 1-527)
[3] = molecular target: CCT5 subunit of yeast TRiC (S. cerevisiae, UniProt P40413 1-562)
[4] = molecular target: CCT6 subunit of yeast TRiC (S. cerevisiae, UniProt P39079 1-546)
[5] = molecular target: CCT4 subunit of yeast TRiC (S. cerevisiae, UniProt P39078 1-528)
Chain of CCT4 subunit of yeast TRiC (P39078 whole entry): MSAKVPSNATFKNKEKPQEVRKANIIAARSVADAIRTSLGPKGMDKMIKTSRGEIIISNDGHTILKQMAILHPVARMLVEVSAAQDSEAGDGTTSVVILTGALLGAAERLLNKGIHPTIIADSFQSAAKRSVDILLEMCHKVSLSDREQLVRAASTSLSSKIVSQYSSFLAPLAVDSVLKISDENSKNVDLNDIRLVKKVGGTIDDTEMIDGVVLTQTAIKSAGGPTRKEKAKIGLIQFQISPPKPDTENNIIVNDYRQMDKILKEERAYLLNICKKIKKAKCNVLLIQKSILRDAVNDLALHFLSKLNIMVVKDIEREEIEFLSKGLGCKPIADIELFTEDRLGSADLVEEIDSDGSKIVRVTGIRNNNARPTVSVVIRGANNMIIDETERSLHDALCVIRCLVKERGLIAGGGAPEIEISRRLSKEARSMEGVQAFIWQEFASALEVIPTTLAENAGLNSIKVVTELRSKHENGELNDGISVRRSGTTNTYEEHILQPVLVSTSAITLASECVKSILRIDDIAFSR

[6] = molecular target: CCT1 subunit of yeast TRiC (S. cerevisiae, UniProt P12612 1-559)
Chain of CCT1 subunit of yeast TRiC (P12612 whole entry): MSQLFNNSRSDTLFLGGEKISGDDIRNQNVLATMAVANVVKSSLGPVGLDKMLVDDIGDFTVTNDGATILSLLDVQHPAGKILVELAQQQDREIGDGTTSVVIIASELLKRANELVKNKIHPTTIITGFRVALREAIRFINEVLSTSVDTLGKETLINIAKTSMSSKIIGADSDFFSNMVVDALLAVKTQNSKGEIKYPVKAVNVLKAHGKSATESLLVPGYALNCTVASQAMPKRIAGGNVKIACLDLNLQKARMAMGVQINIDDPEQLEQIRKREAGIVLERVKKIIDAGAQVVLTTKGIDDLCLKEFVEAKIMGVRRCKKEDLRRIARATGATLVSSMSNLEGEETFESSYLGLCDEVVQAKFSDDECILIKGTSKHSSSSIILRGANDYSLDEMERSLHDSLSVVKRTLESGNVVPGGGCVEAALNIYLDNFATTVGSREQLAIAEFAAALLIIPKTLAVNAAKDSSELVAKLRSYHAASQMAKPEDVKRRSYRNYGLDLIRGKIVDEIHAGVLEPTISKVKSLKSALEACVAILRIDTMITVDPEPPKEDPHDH

[7] = molecular target: CCT3 subunit of yeast TRiC (S. cerevisiae, UniProt P39077 1-534)
Chain of CCT3 subunit of yeast TRiC (P39077 whole entry): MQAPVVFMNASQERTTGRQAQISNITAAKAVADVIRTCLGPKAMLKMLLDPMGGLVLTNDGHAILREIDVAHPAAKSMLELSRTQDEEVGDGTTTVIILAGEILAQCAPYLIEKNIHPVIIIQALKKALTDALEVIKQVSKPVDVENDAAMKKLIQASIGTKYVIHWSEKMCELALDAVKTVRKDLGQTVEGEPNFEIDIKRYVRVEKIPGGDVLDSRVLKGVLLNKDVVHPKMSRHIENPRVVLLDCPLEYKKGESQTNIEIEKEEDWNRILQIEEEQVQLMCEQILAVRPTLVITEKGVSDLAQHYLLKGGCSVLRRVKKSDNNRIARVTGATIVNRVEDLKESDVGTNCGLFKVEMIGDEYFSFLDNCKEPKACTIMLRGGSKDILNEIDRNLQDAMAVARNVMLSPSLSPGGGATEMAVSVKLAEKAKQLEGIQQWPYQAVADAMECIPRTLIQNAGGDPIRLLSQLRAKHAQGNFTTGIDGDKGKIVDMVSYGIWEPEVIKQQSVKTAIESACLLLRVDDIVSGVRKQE

Measured: binding result

Chain of CCT5 subunit of yeast TRiC (P40413 whole entry): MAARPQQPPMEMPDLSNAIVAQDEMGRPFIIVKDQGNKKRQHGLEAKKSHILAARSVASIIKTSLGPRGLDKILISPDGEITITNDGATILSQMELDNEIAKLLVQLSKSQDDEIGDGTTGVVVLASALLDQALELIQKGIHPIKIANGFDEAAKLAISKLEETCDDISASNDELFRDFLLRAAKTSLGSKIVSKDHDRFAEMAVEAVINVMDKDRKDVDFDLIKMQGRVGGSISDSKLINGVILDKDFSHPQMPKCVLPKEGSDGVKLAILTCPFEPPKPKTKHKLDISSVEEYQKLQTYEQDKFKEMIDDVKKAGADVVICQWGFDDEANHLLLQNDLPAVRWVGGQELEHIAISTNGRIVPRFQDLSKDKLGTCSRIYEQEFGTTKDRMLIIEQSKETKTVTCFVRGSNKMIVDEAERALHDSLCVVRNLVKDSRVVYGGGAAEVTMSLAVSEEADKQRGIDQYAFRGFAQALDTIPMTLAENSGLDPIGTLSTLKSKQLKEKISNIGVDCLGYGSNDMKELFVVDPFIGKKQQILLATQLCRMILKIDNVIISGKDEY
Chain of CCT7 subunit of yeast TRiC (P42943 whole entry): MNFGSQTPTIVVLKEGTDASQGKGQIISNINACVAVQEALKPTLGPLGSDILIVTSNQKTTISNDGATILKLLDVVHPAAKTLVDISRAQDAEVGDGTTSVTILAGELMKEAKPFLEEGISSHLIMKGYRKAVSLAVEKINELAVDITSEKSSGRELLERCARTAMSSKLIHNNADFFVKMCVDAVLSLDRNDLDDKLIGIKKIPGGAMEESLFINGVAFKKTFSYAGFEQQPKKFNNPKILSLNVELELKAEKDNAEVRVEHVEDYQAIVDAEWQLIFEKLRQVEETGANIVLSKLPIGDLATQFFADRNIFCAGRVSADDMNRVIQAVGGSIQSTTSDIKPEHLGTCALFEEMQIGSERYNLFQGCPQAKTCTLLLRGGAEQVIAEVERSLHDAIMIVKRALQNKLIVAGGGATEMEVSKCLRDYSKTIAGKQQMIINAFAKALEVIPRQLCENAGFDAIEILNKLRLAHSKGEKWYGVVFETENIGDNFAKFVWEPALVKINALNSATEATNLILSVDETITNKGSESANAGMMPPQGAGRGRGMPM
Chain of CCT6 subunit of yeast TRiC (P39079 whole entry): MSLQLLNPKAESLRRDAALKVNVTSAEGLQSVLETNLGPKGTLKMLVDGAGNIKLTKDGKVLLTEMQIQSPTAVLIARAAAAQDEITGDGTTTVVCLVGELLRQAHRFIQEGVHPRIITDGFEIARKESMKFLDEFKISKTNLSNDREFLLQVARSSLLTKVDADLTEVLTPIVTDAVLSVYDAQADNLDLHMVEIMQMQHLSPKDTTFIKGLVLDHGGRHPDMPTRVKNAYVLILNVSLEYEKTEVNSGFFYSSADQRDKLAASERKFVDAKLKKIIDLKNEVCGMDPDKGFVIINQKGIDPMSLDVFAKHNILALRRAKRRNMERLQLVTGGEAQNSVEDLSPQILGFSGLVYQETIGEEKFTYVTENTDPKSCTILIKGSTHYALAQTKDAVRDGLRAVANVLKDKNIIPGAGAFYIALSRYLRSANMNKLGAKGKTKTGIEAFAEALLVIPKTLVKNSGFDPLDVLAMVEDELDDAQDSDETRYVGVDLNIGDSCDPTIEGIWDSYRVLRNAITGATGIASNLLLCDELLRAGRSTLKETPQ
Chain of CCT2 subunit of yeast TRiC (P39076 whole entry): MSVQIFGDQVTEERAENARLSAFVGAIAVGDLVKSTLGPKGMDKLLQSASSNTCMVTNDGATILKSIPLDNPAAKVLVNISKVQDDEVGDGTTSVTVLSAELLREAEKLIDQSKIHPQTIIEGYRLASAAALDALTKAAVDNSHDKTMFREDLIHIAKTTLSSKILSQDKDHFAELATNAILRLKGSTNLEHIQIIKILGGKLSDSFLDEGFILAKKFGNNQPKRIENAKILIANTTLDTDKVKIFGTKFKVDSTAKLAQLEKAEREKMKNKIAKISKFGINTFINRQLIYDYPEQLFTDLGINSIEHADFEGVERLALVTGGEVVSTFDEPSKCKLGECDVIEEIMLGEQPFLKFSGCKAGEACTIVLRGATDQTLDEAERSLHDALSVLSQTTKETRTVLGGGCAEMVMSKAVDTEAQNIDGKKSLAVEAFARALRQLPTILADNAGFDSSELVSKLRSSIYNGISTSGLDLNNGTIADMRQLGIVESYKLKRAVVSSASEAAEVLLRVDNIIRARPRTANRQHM

B1: yeast plp2 (homolog of PhLP2 in Saccharomyces cerevisiae) (natural protein, S. cerevisiae)
chain: MQNEPMFQVQVDESEDSEWNDILRAKGVIPERAPSPTAKLEEALEEAIAKQHENRLEDKDLSDLEELEDDEDEDFLEAYKIKRLNEIRKLQERSKFGEVFHINKPEYNKEVTLASQGKKYEGAQTNDNGEEDDGGVYVFVHLSLQSKLQSRILSHLFQSAACKFREIKFVEIPANRAIENYPESNCPTLIVYYRGEVIKNMITLLELGGNNSKMEDFEDFMVKVGAVAEGDNRLIMNRDDEESREERKLHYGEKKSIRSGIRGKFNVGIGGNDDGNINDDDDGFFD
binds: all assays above
